Laboratory results as given in patent publication US8329168.

System: Met-SC1-325-His-6 (fragment comprising residues 1-325 of staphylocoagulase with an additional Met at the NH2 terminus and a His tag fused to the COOH terminus)

IIQ320 (recombinant human prothrombin containing Gln in place of Arg-320)
conformational activation (initial rates of S2238 hydrolysis): Conformational activation of IIQ320 and its covalent inactivation with FPR-CH2Cl was accomplished by the addition of 43 µM Met-SC1-325-His-6
